{"source": "patent US20250043302A1", "about": "“MUTATED HYDROXYPHENYLPYRUVATE DIOXYGENASE POLYPEPTIDE, AND CODING GENE AND USE THEREOF” (BEIJING DABEINONG BIOTECHNOLOGY CO., LTD., priority 2021, published 2025)", "molecules": {"B1": {"name": "ZmHPPD-02: nucleotide sequence encoding wild-type Zea mays HPPD; vector DBN11766 (nucleic acid)", "DNA": "ATGCCACCCACACCCACAGCAGCAGCGGCGGGCGCAGCGGTCGCAGCGGCGTCAGCGGCGGAGCAAGCGGCGTTCAGATTGGTTGGTCACCGCAACTTCGTGAGATTCAATCCTCGCTCAGATAGATTCCATACTCTGGCCTTCCACCATGTTGAGCTTTGGTGCGCTGATGCTGCTTCTGCTGCTGGAAGGTTCAGCTTCGGTTTGGGTGCTCCCCTCGCTGCTAGATCTGATTTGAGCACTGGTAACTCAGCACATGCTTCCCTCCTGCTTAGATCTGGCTCTCTGAGCTTCCTTTTCACTGCTCCATATGCTCATGGTGCTGATGCTGCTACAGCTGCTCTCCCTTCATTCTCCGCTGCTGCTGCTAGGAGATTCGCTGCTGATCACGGATTGGCTGTGAGGGCTGTTGCACTTAGAGTTGCTGATGCTGAGGAGGCCTTCCGCACCTCTGTTGCTGCTGGAGCCAGACCAGCTTTCGGACCTGTTGATCTCGGAAGGGGTTTCCGCCTGGCTGAGGTGGAGCTTTACGGCGATGTGGTTCTGCGCTACGTTAGCTATCCTGATGGTGCTGCTGGTGAACCTTTCCTTCCAGGATTCGAGGGTGTGGCCTCACCAGGTGCCGCTGATTACGGCCTGTCCAGATTCGACCACATTGTTGGAAATGTTCCTGAGCTTGCTCCAGCTGCTGCCTACTTCGCTGGCTTCACCGGATTCCATGAGTTCGCCGAGTTCACCACTGAGGATGTGGGAACTGCTGAGTCTGGTTTGAATAGCATGGTGCTCGCCAACAATTCAGAGAACGTTTTGCTCCCTCTGAATGAGCCCGTGCACGGAACAAAGAGAAGGTCCCAGATTCAAACCTTCTTGGATCACCACGGCGGCCCAGGTGTTCAGCATATGGCTCTCGCCTCCGATGACGTGTTGAGAACCCTCAGGGAGATGCAAGCCAGGTCTGCTATGGGTGGCTTCGAGTTCATGGCCCCACCTACAAGCGATTACTATGATGGTGTGCGCAGAAGGGCTGGCGACGTTCTTACCGAGGCTCAGATCAAGGAGTGCCAAGAGCTGGGCGTGCTTGTTGATAGAGATGACCAGGGAGTTCTGCTTCAAATTTTCCCCAAGCCAGTGGGCGACAGGCCTACTTTGTTCCTCGAGATTATCCAGAGAATCGGATGCATGGAGAGGGATGAGAAGGGTCAGGAGTACCAAAAGGGAGGTTGCGGCGGATTCGGCAAGGGAAATTTCTCACAACTCTTCAAGTCCATCGAGGACTATGAAAAGAGTCTGGAAGCGATGCAGGCAGCAGCAGCAGCAACCGCACAGGGGTCGTGA", "modifications": "ZmHPPD-02 Nucleotide Sequence", "notes": "vector DBN11766"}}, "assay_type_in_all_cases": "in vivo", "key": {"[1]": {"test_system": "Arabidopsis thaliana T1 plants", "experiment": "Topramezone tolerance of transgenic Arabidopsis thaliana T1 plants (spray, bleached leaf area grade, damage score)", "details": "7 DAT, Table 4; for Classification and statistics of the grade of pesticide damage: Grade 0 / Classification and statistics of the grade of pesticide damage: Grade 1 / Classification and statistics of the grade of pesticide damage: Grade 2 / Classification and statistics of the grade of pesticide damage: Grade 3: number of plants; for Scores: pesticide damage score 0-100", "summary_of_the_method": "(§1)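 T1 transformants selected by glufosinate; 18-day-old plants, with empty-vector and wild-type controls, sprayed with topramezone (25–200 g ai/ha), isoxaflutole (35–280 g ai/ha) or mesotrione (52.5–420 g ai/ha), water as 0×. Bleached leaf area fraction scored at 7 DAT as grades 0–3.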"}, "[2]": {"test_system": "Arabidopsis thaliana T1 plants", "experiment": "Isoxaflutole tolerance of transgenic Arabidopsis thaliana T1 plants (spray, bleached leaf area grade, damage score)", "parameters": "Scores (pesticide damage): scale not given here", "details": "spray, Arabidopsis thaliana T1 plants; for Classification and statistics of the grade of pesticide damage: Grade 0 (number of plants) / Classification and statistics of the grade of pesticide damage: Grade 1 (number of plants) / Classification and statistics of the grade of pesticide damage: Grade 2 (number of plants) / Classification and statistics of the grade of pesticide damage: Grade 3 (number of plants): 16 plants", "summary_of_the_method": "as §1"}, "[3]": {"test_system": "Arabidopsis thaliana T1 plants", "experiment": "Mesotrione tolerance of transgenic Arabidopsis thaliana T1 plants (spray, bleached leaf area grade, damage score)", "parameters": "Scores: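 damage score 0-100 computed as Σ(N×S)/(T×M)×100 over grades 0-3 with higher meaning more damage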", "details": "Arabidopsis thaliana T1 plants; for Grade 0 (classification and statistics of the grade of pesticide damage; number of plants) / Grade 1 (classification and statistics of the grade of pesticide damage; number of plants) / Grade 2 (classification and statistics of the grade of pesticide damage; number of plants) / Grade 3 (classification and statistics of the grade of pesticide damage; number of plants): 16 plants", "summary_of_the_method": "as §1"}, "[4]": {"details": "isoxaflutole 35 g ai/ha (0.5x field concentration)"}, "[5]": {"details": "isoxaflutole 70 g ai/ha (1x field concentration)"}}, "data": [{"molecule": "B1", "values": [{"measurement": "Classification and statistics of the grade of pesticide damage: Grade 0", "setting": "[1]; topramezone 25 g ai/ha (1×)", "value": 0}, {"measurement": "Classification and statistics of the grade of pesticide damage: Grade 1", "setting": "[1]; topramezone 25 g ai/ha (1×)", "value": 0}, {"measurement": "Classification and statistics of the grade of pesticide damage: Grade 2", "setting": "[1]; topramezone 25 g ai/ha (1×)", "value": 0}, {"measurement": "Classification and statistics of the grade of pesticide damage: Grade 3", "setting": "[1]; topramezone 25 g ai/ha (1×)", "value": 16}, {"measurement": "Classification and statistics of the grade of pesticide damage: Grade 0", "setting": "[1]; topramezone 100 g ai/ha (4×)", "value": 0}, {"measurement": "Classification and statistics of the grade of pesticide damage: Grade 1", "setting": "[1]; topramezone 100 g ai/ha (4×)", "value": 0}, {"measurement": "Classification and statistics of the grade of pesticide damage: Grade 2", "setting": "[1]; topramezone 100 g ai/ha (4×)", "value": 0}, {"measurement": "Classification and statistics of the grade of pesticide damage: Grade 3", "setting": "[1]; topramezone 100 g ai/ha (4×)", "value": 16}, {"measurement": "Scores", "setting": "[1]; topramezone 25 g ai/ha (1×)", "value": 100}, {"measurement": "Scores", "setting": "[1]; topramezone 100 g ai/ha (4×)", "value": 100}, {"measurement": "Resistance evaluation", "setting": "[1]; topramezone 25 g ai/ha (1×)", "value": "non-resistant (non-resistant plants (scores 68-100))"}, {"measurement": "Resistance evaluation", "setting": "[1]; topramezone 100 g ai/ha (4×)", "value": "non-resistant (non-resistant plants (scores 68-100))"}, {"measurement": "Resistance evaluation", "setting": "[2]; [4]", "value": "Non-resistant"}, {"measurement": "Scores (pesticide damage)", "setting": "[2]; [4]", "value": 100}, {"measurement": "Classification and statistics of the grade of pesticide damage: Grade 0 (number of plants)", "setting": "[2]; [4]", "value": 0}, {"measurement": "Classification and statistics of the grade of pesticide damage: Grade 1 (number of plants)", "setting": "[2]; [4]", "value": 0}, {"measurement": "Classification and statistics of the grade of pesticide damage: Grade 2 (number of plants)", "setting": "[2]; [4]", "value": 0}, {"measurement": "Classification and statistics of the grade of pesticide damage: Grade 3 (number of plants)", "setting": "[2]; [4]", "value": 16}, {"measurement": "Resistance evaluation", "setting": "[2]; [5]", "value": "Non-resistant"}, {"measurement": "Scores (pesticide damage)", "setting": "[2]; [5]", "value": 100}, {"measurement": "Classification and statistics of the grade of pesticide damage: Grade 0 (number of plants)", "setting": "[2]; [5]", "value": 0}, {"measurement": "Classification and statistics of the grade of pesticide damage: Grade 1 (number of plants)", "setting": "[2]; [5]", "value": 0}, {"measurement": "Classification and statistics of the grade of pesticide damage: Grade 2 (number of plants)", "setting": "[2]; [5]", "value": 0}, {"measurement": "Classification and statistics of the grade of pesticide damage: Grade 3 (number of plants)", "setting": "[2]; [5]", "value": 16}, {"measurement": "Resistance evaluation", "setting": "[3]; mesotrione 52.5 g ai/ha", "value": "Non-resistant"}, {"measurement": "Scores", "setting": "[3]; mesotrione 52.5 g ai/ha", "value": 100}, {"measurement": "Grade 0 (classification and statistics of the grade of pesticide damage; number of plants)", "setting": "[3]; mesotrione 52.5 g ai/ha", "value": 0}, {"measurement": "Grade 1 (classification and statistics of the grade of pesticide damage; number of plants)", "setting": "[3]; mesotrione 52.5 g ai/ha", "value": 0}, {"measurement": "Grade 2 (classification and statistics of the grade of pesticide damage; number of plants)", "setting": "[3]; mesotrione 52.5 g ai/ha", "value": 0}, {"measurement": "Grade 3 (classification and statistics of the grade of pesticide damage; number of plants)", "setting": "[3]; mesotrione 52.5 g ai/ha", "value": 16}, {"measurement": "Resistance evaluation", "setting": "[3]; mesotrione 105 g ai/ha", "value": "Non-resistant"}, {"measurement": "Scores", "setting": "[3]; mesotrione 105 g ai/ha", "value": 100}, {"measurement": "Grade 0 (classification and statistics of the grade of pesticide damage; number of plants)", "setting": "[3]; mesotrione 105 g ai/ha", "value": 0}, {"measurement": "Grade 1 (classification and statistics of the grade of pesticide damage; number of plants)", "setting": "[3]; mesotrione 105 g ai/ha", "value": 0}, {"measurement": "Grade 2 (classification and statistics of the grade of pesticide damage; number of plants)", "setting": "[3]; mesotrione 105 g ai/ha", "value": 0}, {"measurement": "Grade 3 (classification and statistics of the grade of pesticide damage; number of plants)", "setting": "[3]; mesotrione 105 g ai/ha", "value": 16}]}]}
